What was measured:
[1] = target: T1, MLO-Y4 cell surface proteins (Mus musculus, UniProt P16675); assay: Crosslinking/co-immunoprecipitation/mass spectrometry (TMT quantitative proteomics) to identify irisin receptors; type: binding; conditions: co-precipitated protein Ctsa (PPGB_MOUSE)
T1 construct: endogenous in cells; host or cells: MLO-Y4
T1 sequence (P16675 24-474): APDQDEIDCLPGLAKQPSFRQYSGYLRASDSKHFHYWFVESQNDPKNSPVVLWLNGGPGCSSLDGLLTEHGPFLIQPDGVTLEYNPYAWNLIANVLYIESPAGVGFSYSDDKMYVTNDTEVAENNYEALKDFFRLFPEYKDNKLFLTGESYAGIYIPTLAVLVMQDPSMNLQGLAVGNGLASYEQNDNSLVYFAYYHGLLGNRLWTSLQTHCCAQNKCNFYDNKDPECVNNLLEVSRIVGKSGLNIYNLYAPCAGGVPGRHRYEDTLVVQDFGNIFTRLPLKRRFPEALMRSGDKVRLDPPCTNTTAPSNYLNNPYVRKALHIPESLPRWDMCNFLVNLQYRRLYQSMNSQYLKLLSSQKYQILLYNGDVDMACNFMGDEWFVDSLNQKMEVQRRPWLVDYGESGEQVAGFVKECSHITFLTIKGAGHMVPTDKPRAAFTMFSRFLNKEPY
Outline: (§1)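 Mouse MLO-Y4 cells were switched to serum-free FreeStyle medium for 4 h, chilled, then exposed to 10 nM His-tagged irisin (or adipsin as control) for 20 min. Cells were crosslinked with 1.5 mM DTSSP (30 min, ice), and bound proteins were pulled down on Ni-NTA and eluted with 250 mM imidazole. Eluates were separated by SDS-PAGE, trypsin-digested in gel, TMT 6-plex labelled and quantified by MS3-based LC-MS/MS on an Orbitrap Fusion Lumos.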

[2] = target: T2, MLO-Y4 cell surface proteins (Mus musculus, UniProt P41216); assay: as above; type: binding; conditions: co-precipitated protein Acsl1 (ACSL1_MOUSE)
T2 construct: endogenous in cells; host or cells: MLO-Y4
T2 sequence (P41216 1-699): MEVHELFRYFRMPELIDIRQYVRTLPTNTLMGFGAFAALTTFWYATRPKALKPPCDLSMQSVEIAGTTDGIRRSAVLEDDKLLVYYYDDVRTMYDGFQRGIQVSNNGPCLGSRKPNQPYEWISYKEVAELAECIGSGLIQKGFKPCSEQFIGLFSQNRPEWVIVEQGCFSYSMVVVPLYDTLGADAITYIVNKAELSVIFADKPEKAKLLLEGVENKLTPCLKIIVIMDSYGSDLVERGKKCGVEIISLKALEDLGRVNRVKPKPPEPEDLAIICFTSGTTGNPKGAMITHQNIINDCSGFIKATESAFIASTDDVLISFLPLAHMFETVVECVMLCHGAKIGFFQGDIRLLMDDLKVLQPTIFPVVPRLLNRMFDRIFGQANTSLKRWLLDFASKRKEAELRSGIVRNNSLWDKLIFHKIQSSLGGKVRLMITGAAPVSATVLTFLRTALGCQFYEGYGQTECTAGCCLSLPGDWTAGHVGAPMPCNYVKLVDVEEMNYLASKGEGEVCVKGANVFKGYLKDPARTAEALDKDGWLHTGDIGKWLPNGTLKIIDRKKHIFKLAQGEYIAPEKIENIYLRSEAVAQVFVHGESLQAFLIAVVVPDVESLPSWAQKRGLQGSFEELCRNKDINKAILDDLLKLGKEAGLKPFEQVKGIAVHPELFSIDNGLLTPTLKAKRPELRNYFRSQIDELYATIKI
Outline: as §1

B1: irisin: secreted cleaved form of FNDC5; recombinant human/mouse irisin with C-terminal his tag produced in HEK293 cells (protein)
chain: DSPSAPVNVTVRHLKANSAVVSWDVLEDEVVIGFAISQQKKDVRMLRFIQEVNTTTRSCALWDLEEDTEYIVHVQAISIQGQSPASEPVLFKTPREAEKMASKNKDEVTMKE
modifications: left off: small tags and cut ends
notes: secreted cleaved form of FNDC5; recombinant human/mouse irisin with C-terminal his tag produced in HEK293 cells
TMT signal-to-noise ratio [1]: 111.377 | irisin/adipsin TMT signal-to-noise ratio [1]: 0.311 | TMT signal-to-noise ratio [2]: 192.15 | irisin/adipsin TMT signal-to-noise ratio [2]: 0.532

From patent US20210063414A1, “METHODS FOR PREVENTING AND/OR TREATING BONE LOSS CONDITIONS BY MODULATING IRISIN” (Dana-Farber Cancer Institute, Inc., priority 2018, published 2021)
